Drawing on patent publication US20260167677A1, “ANTI-ADAM10 ANTIBODIES AND USES IN TREATMENT OF CANCER” (Memorial Sloan Kettering Cancer Center, priority 2022, published 2026), this text covers sAPPα shedding for one molecule.

The assay concerns human APP. The experiment in a line: Western blot of APP shedding in U2OS cells transfected with human APP. The class given is cell-based. As to conditions: 31 nM to 1 μM. The procedure:
U2OS cells transiently transfected with human APP releases the extracellular portion of APP to the media.
The release of sAPPα in the presence of varying concentrations of IHigG/Fab (31 nM to 1 μM) was evaluated using Western blotting. The Western blots were quantitated using the software Image J and glyceraldehyde 3-phosphate dehydrogenase (GAPDH) as loading control. A vector control was included and U20S cells transfected with APP, but untreated, was used to calculate the fold increase in shedding.

B1: 1H5 Fab: Fab fragment of fully human anti-ADAM10 antibody 1H5 (antibody)
heavy: QVQLVESGGGLVKPGGSLRLSCAASGFTFSDYYMSWIRQAPGKGLEWVSYISSSGSTIYYADSVKGRFTISRDNAKNSLYLQMNSLRAEDTAVYYCARDFYDSKIFDYWGQGTLVTVSSASTKGPSVFPLAPSSKSTSGGTAALGCLVKDYFPEPVTVSWNSGALTSGVHTFPAVLQSSGLYSLSSVVTVPSSSLGTQTYICNVNHKPSNTKVDKKVEPKSCDKT
light: DIQMTQSPSSLSASVGDRVTITCRASQSISSYLNWYQQKPGKAPKLLIYAASSLQSGVPSRFSGSGSGTDFTLTISSLQPEDVGVYYCMEGLKTPFTFGPGTKLEIKRTVAAPSVFIFPPSDEQLKSGTASVVCLLNNFYPREAKVQWKVDNALQSGNSQESVTEQDSKDSTYSLSSTLTLSKADYEKHKVYACEVTHQGLSSPVTKSFNRGEC
For the molecule B1, the sAPPα shedding entry was “increase”.
